The record followed here is US20220008473A1 (CRISPR THERAPEUTICS, published 2022).

For the assay, the target named is T1, biotinylated recombinant human BCMA (ACROS Cat #BC7-H82F0) (human, UniProt Q02223 1-54, biotinylated (site not stated)).
T1 construct: Bought reagent; also called CD269; B-cell maturation antigen
T1 sequence (looked up): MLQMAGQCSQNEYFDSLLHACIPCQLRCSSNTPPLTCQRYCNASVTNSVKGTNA
In words: flow cytometry of CAR T cells stained with biotinylated recombinant antigen.

B1: anti-BCMA CAR comprising the amino acid sequence of SEQ ID NO: 86 (other)
chain: QVQLVQSGAELKKPGASVKVSCKASGNTLTNYVIHWVRQAPGQRLEWMGYILPYNDLTKYSQKFQGRVTITRDKSASTAYMELSSLRSEDTAVYYCTRWDWDGFFDPWGQGTTVTVSSGGGGSGGGGSGGGGSEIVMTQSPATLSVSPGERASISCRASQSLVHSNGNTHLHWYQQRPGQAPRLLIYSVSNRFSEVPARFSGSGSGTDFTLTISSVESEDFAVYYCSQTSHIPYTFGGGTKLEIKSAAAFVPVFLPAKPTTTPAPRPPTPAPTIASQPLSLRPEACRPAAGGAVHTRGLDFACDIYIWAPLAGTCGVLLLSLVITLYCNHRNRKRGRKKLLYIFKQPFMRPVQTTQEEDGCSCRFPEEEEGGCELRVKFSRSADAPAYQQGQNQLYNELNLGRREEYDVLDKRRGRDPEMGGKPRRKNPQEGLYNELQKDKMAEAYSEIGMKGERRRGKGHDGLYQGLSTATKDTYDALHMQALPPR
notes: Chimeric antigen receptor on engineered human T cells
As to B1, the binding result is “binds”.
